Earlier results in publication PMC8298264, “Function of cofactor Akirin2 in the regulation of gene expression in model human neutrophil-like HL60 cells” (Bioscience Reports, 2021).

Test system: AKR2
Design: key: A: Very high confidence in the interaction; B: High confidence in the interaction; D: Moderate confidence in the interaction
Details: AKR2-interacting proteins (IPs), physical interactome; ref https://doi.org/10.3390/vaccines8010077; cited from earlier work
From the text: Supplement BSR-2021-1120_supp1.zip/BSR-2021-1120_suppST4.xlsx, sheet "BPs related to AKR2-IPs" | column: Predicted Biological Score (PBS)

| Molecule | Predicted Biological Score (PBS) |
| --- | --- |
| SPG21 (protein, UniProt Q9NZD8 1-308, looked up) Maspardin: MGEIKVSPDYNWFRGTVPLKKIIVDDDDSKIWSLYDAGPRSIRCPLIFLPPVSGTADVFFRQILALTGWGYRVIALQYPVYWDHLEFCDGFRKLLDHLQLDKVHLFGASLGGFLAQKFAEYTHKSPRVHSLILCNSFSDTSIFNQTWTANSFWLMPAFMLKKIVLGNFSSGPVDPMMADAIDFMVDRLESLGQSELASRLTLNCQNSYVEPHKIRDIPVTIMDVFDQSALSTEAKEEMYKLYPNARRAHLKTGGNFPYLCRSAEVNLYVQIHLLQFHGTKYAAIDPSMVSAEELEVQKGSLGISQEEQ | A |
| SIRT1 (protein, UniProt Q96EB6 2-747, looked up) NAD-dependent protein …: ADEAALALQPGGSPSAAGADREAASSPAGEPLRKRPRRDGPGLERSPGEPGGAAPEREVPAAARGCPGAAAAALWREAEAEAAAAGGEQEAQATAAAGEGDNGPGLQGPSREPPLADNLYDEDDDDEGEEEEEAAAAAIGYRDNLLFGDEIITNGFHSCESDEEDRASHASSSDWTPRPRIGPYTFVQQHLMIGTDPRTILKDLLPETIPPPELDDMTLWQIVINILSEPPKRKKRKDINTIEDAVKLLQECKKIIVLTGAGVSVSCGIPDFRSRDGIYARLAVDFPDLPDPQAMFDIEYFRKDPRPFFKFAKEIYPGQFQPSLCHKFIALSDKEGKLLRNYTQNIDTLEQVAGIQRIIQCHGSFATASCLICKYKVDCEAVRGDIFNQVVPRCPRCPADEPLAIMKPEIVFFGENLPEQFHRAMKYDKDEVDLLIVIGSSLKVRPVALIPSSIPHEVPQILINREPLPHLHFDVELLGDCDVIINELCHRLGGEYAKLCCNPVKLSEITEKPPRTQKELAYLSELPPTPLHVSEDSSSPERTSPPDSSVIVTLLDQAAKSNDDLDVSESKGCMEEKPQEVQTSRNVESIAEQMENPDLKNVGSSTGEKNERTSVAGTVRKCWPNRVAKEQISRRLDGNQYLFLPPNRYIFHGAEVYSDSEDDVLSSSSCGSNSDSGTCQSPSLEEPMEDESEIEEFYNGLEDEPDVPERAGGAGFGTDGDDQEAINEAISVKQEVTDMNYPSNKS | D |
| UBAC1 (protein, UniProt Q9BSL1 1-405, looked up) Ubiquitin-associated …: MFVQEEKIFAGKVLRLHICASDGAEWLEEATEDTSVEKLKERCLKHCAHGSLEDPKSITHHKLIHAASERVLSDARTILEENIQDQDVLLLIKKRAPSPLPKMADVSAEEKKKQDQKAPDKEAILRATANLPSYNMDRAAVQTNMRDFQTELRKILVSLIEVAQKLLALNPDAVELFKKANAMLDEDEDERVDEAALRQLTEMGFPENRATKALQLNHMSVPQAMEWLIEHAEDPTIDTPLPGQAPPEAEGATAAASEAAAGASATDEEARDELTEIFKKIRRKREFRADARAVISLMEMGFDEKEVIDALRVNNNQQNAACEWLLGDRKPSPEELDKGIDPDSPLFQAILDNPVVQLGLTNPKTLLAFEDMLENPLNSTQWMNDPETGPVMLQISRIFQTLNRT | A |
| TNIP2 (protein, UniProt Q8NFZ5 1-429, looked up) TNFAIP3-interacting protein 2: MSRDPGSGGWEEAPRAAAALCTLYHEAGQRLRRLQDQLAARDALIARLRARLAALEGDAAPSLVDALLEQVARFREQLRRQEGGAAEAQMRQEIERLTERLEEKEREMQQLLSQPQHEREKEVVLLRRSMAEGERARAASDVLCRSLANETHQLRRTLTATAHMCQHLAKCLDERQHAQRNVGERSPDQSEHTDGHTSVQSVIEKLQEENRLLKQKVTHVEDLNAKWQRYNASRDEYVRGLHAQLRGLQIPHEPELMRKEISRLNRQLEEKINDCAEVKQELAASRTARDAALERVQMLEQQILAYKDDFMSERADRERAQSRIQELEEKVASLLHQVSWRQDSREPDAGRIHAGSKTAKYLAADALELMVPGGWRPGTGSQQPEPPAEGGHPGAAQRGQGDLQCPHCLQCFSDEQGEELLRHVAECCQ | A |
| TOMM34 (protein, UniProt Q15785 1-309, looked up) Mitochondrial import receptor …: MAPKFPDSVEELRAAGNESFRNGQYAEASALYGRALRVLQAQGSSDPEEESVLYSNRAACHLKDGNCRDCIKDCTSALALVPFSIKPLLRRASAYEALEKYPMAYVDYKTVLQIDDNVTSAVEGINRMTRALMDSLGPEWRLKLPSIPLVPVSAQKRWNSLPSENHKEMAKSKSKETTATKNRVPSAGDVEKARVLKEEGNELVKKGNHKKAIEKYSESLLCSNLESATYSNRALCYLVLKQYTEAVKDCTEALKLDGKNVKAFYRRAQAHKALKDYKSSFADISNLLQIEPRNGPAQKLRQEVKQNLH | A |
| SORBS3 (protein, UniProt O60504 1-671, looked up) Vinexin: MQGPPRSLRAGLSLDDFIPGHLQSHIGSSSRGTRVPVIRNGGSNTLNFQFHDPAPRTVCNGGYTPRRDASQHPDPAWYQTWPGPGSKPSASTKIPASQHTQNWSATWTKDSKRRDKRWVKYEGIGPVDESGMPIAPRSSVDRPRDWYRRMFQQIHRKMPDLQLDWTFEEPPRDPRHLGAQQRPAHRPGPATSSSGRSWDHSEELPRSTFNYRPGAFSTVLQPSNQVLRRREKVDNVWTEESWNQFLQELETGQRPKKPLVDDPGEKPSQPIEVLLERELAELSAELDKDLRAIETRLPSPKSSPAPRRAPEQRPPAGPASAWSSSYPHAPYLGSARSLSPHKMADGGSPFLGRRDFVYPSSTRDPSASNGGGSPARREEKKRKAARLKFDFQAQSPKELTLQKGDIVYIHKEVDKNWLEGEHHGRLGIFPANYVEVLPADEIPKPIKPPTYQVLEYGEAVAQYTFKGDLEVELSFRKGEHICLIRKVNENWYEGRITGTGRQGIFPASYVQVSREPRLRLCDDGPQLPTSPRLTAAARSARHPSSPSALRSPADPIDLGGQTSPRRTGFSFPTQEPRPQTQNLGTPGPALSHSRGPSHPLDLGTSSPNTSQIHWTPYRAMYQYRPQNEDELELREGDRVDVMQQCDDGWFVGVSRRTQKFGTFPGNYVAPV | A |
